The stoichiometry N is a count of units in the complex or per binding partner.

In test [1] the target is pyruvate kinase M2 type (PKM2), mouse kidney (mouse (endogenous in kidney)) (UniProt P52480). The experiment in a line: cross-linking; glutaraldehyde added to clarified kidney lysate (4 mg/mL; sodium phosphate buffer pH 7.3, 0.5% Triton X-100), 37 °C for 10 min, stopped with Tris; 5-20% SDS/PAGE and Western blotting; kidneys of control and diabetic CD-1 and C57Bl6 mice, scramble or sirt3 siRNA injected diabetic mice, DCA treated diabetic mice, KK/Ta-Ins2Akita mice and littermate controls. In general terms: Immunoblotting shows a protein as a band on a membrane.

Test [2] addresses pyruvate kinase M2 type (PKM2), human HK-2 cells (human (endogenous in HK-2)) (UniProt P14618). The experiment in a line: cross-linking; glutaraldehyde chemical cross-linking of scramble siRNA, sirt3 siRNA transfected and TGFβ alone treated HK-2 cells; Western blot.

Where “and” joins values, the source holds several entries; their conditions need not be identical. Equal values may be shown once.

pyruvate kinase M2 type (PKM2), mouse kidney, P52480 1-531 (enzyme; other documents disagree on this pair), sequence (P52480 whole entry): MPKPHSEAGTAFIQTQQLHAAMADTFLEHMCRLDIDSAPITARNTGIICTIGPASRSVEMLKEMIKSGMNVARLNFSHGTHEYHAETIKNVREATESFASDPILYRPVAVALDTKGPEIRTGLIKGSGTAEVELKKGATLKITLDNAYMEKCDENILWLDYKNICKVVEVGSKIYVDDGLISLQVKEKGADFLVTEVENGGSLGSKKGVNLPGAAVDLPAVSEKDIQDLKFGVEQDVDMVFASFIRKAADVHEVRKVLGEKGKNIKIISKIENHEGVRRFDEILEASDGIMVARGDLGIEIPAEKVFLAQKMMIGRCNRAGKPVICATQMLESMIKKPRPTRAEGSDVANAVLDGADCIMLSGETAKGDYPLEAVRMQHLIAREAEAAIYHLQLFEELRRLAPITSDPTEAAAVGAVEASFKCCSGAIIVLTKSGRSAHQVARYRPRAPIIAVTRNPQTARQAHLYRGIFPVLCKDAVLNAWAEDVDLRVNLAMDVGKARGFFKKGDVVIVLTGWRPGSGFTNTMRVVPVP
pyruvate kinase M2 type (PKM2), human HK-2 cells, P14618 1-531 (enzyme; other documents disagree on this pair), sequence (P14618 whole entry): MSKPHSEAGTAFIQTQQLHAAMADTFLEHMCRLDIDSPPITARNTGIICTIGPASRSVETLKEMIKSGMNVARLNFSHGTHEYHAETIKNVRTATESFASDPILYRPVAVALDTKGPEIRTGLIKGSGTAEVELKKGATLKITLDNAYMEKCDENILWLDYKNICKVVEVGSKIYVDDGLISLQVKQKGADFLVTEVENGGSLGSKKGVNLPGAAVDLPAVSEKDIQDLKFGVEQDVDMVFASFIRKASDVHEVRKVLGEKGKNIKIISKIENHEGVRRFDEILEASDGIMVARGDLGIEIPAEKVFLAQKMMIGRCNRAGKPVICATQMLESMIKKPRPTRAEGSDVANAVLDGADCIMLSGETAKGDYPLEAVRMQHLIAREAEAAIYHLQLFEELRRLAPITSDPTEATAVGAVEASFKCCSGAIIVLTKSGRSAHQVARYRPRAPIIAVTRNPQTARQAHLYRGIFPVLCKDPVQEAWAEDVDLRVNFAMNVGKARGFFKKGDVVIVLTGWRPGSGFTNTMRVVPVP

In the case of “pyruvate kinase M2 type (PKM2), mouse kidney, P52480 1-531 (enzyme; other documents disagree on this pair)”, the stoichiometry N in test [1] was 2 and 4.

In test [2], “pyruvate kinase M2 type (PKM2), human HK-2 cells, P14618 1-531 (enzyme; other documents disagree on this pair)” had a stoichiometry N of 2.

Source of the values: PMC6155322.
